Changes are numbered by the printed parent chain.
B1: 13C7 anti-CDH17 recombinant antibody (human IgG1) (antibody, V domains shown)
VH: QITLKESGPTLVKPTQTLTLTCTFSGFSLSTSGVGVGWIRQPPGKALEWLALIYWNDDKRYRPSLKNRLTITKDTSKNQVVLTMTNMDPVDTATYYCTHYGVTAPFYNWFDPWGQGTLVTVSS
VL: DIQMTQSPSSLSASVGDRVTITCRASQSITSYLNWYQQKPGKAPKLLIYAASSLQSGVPSRFSGSGSGTDFTLTISSLQPEDFATYYCQRSYSTLTFGGGTKVEIKR
B2: 19C7 anti-CDH17 recombinant antibody (human IgG1) (antibody, V domains shown)
VH: B1 VH with F27I, S32G, A51S, R62S, N67S, T75S, T98A, Y100S, V102L, T103A
VL: B1 VL with T30S, S31N, Q38L, K42N, Y49F, Y87F
B3: 14B12 anti-CDH17 recombinant antibody (human IgG1) (antibody, V domains shown)
VH: QVQLQESGPGLVKPSETLSLTCTVSGGSINTYYRSWIRQPPGKGLEWIGYIYYSGNTNYNPSLKSRVTISADTSKNQFSLNLISVTAADTAMYYCARAQYGEEAFDIWGQGTLVTVSS
VL: DIQMTQSPSSLSASVGDRVTITCRASQSITTYLNWYQQKPGKAPQLLIFAASRLQTGVPSRFSGSGSGTDFTLTISSLLPGDFATYYCQQSYNTPPTFGGGTKVEIKR
notes: Recombinant human IgG1 / kappa, expressed in CHO or ExpiCHO-S cells
B4: 17F3 anti-CDH17 recombinant antibody (human IgG1) (antibody, V domains shown)
VH: EVQLVESGGGLVKSGGSLRLSCAASGFTFSSYSLKWVRQAPGKGLEWVSSISSSSGYIYYADSVKGRFTISRDNAKNSLYLQMNSLRAEDTAMYYCARAVSTIAARPGYYYYYMDVWGKGTLVTVSS
VL: DIQMTQSPSSVSASIGDRVTITCRASQDISTWFAWYQQKPGKAPKLLIYAASTLRSGVPSRFSGSGSGTDFTLTINSLQPEDFATYYCQQANSFPLTFGGGTKVEIKR
B5: 2F9 anti-CDH17 recombinant antibody (human IgG1) (antibody, V domains shown)
VH: EVQLVESGGGVVRPGGSLRLSCAASGFTFDDYGMSWVRQAPGKGLEWVSGLSWNGGNTYYADSVKGRFTISRDNAKNSLYLQMNSLRAEDTALYYCARGSRYNWNYDAFDIWGQGTLVTVSS
VL: DIQMTQSPSSLSASIGDRVTITCRASQGIRNALGWYQQKPGKAPKRLIYAASNLQSGVPSRFSGSGSGTEFTLTISSLQPEDFATYYCLQHNSYPFTFGPGTKVEIKR
B6: 9E2 anti-CDH17 recombinant antibody (human IgG1) (antibody, V domains shown)
VH: B5 VH with D31N, L51I, S52N, N57S, K65R, N105S
VL: B5 VL with I15V, I29V, N53S
B7: 4F9 anti-CDH17 recombinant antibody (human IgG1) (antibody, V domains shown)
VH: QVQLQESGPGLVKPSGTLSLTCAVSGGSISSSNWWSWVRQPPGKGLEWIGEIYHSGSTSYNPSLKSRVTISVDKSKNQFSLKLSSVTAADTAVYYCARNDWGFPLDCWGQGTLVTVSS
VL: DIQMTQSPSSLSASVGDRVTITCRASQSISSYLNWYQQKPGKAPKLLIYAASSLQSGVPSRFSGSGSGTHFTLTISSLQPEDFATYYCQQSHNIPITFGQGTRLEIKR
B8: 1H10 anti-CDH17 recombinant antibody (human IgG1) (antibody, V domains shown)
VH: QVQLVESGGGVVQPGRSLRLSCVASGFTFSSYGMHWVRQAPGKGLEWVTFIWYDGSNKNYADSVKGRFTISRDNSKNTLNLQMNSLRVEDTAVYYCARDRYSSGWDVFDYWGQGTLVTVSS
VL: DIQMTQSPSSVSASVGDRVTITCRASQDISSWLAWYQQQPGKAPKLQIYAASSLQSGVPSRFSGSGSGTDFTLTISSLQPEDFATYYCQQAKSFPPTFGQGTKVEIKR
B9: 15A4 anti-CDH17 recombinant antibody (human IgG1) (antibody, V domains shown)
VH: B8 VH with V23A, T28N, T49A, I51V, K58Q, K76N, N80Y, V88A
VL: B8 VL with D28G, Q39K, Q47L, Y49F, D70G
B10: 10E11 anti-CDH17 recombinant antibody (human IgG1) (antibody, V domains shown)
VH: EVQLVQSGTEVKKPGESLKISCKDSGYRFSSYWIGWVRQMPGKGLEWMGIIYPGDSDTRYSPSFQGQVTISADKSISTAYLQWRSLKASDTAMYYCARRGWVNYFDYWGQGTLVTVSS
VL: B4 VL with I15V, D28G, T31N, F33L, A34G, T53S, R55Q, N76S
notes: as for B3

How the values were obtained:
[1] = target: human CDH17 as originally expressed on cancer cells (AsPC1, GP2d and other CDH17 expressing cell lines) (human) (UniProt Q12864); assay: flow cytometry on AsPC1 cells, Alexa Fluor 647 labelled antibody
[2] = target: human CDH17 as originally expressed on cancer cells (AsPC1, GP2d and other CDH17 expressing cell lines) (human, UniProt Q12864 23-832); assay: cell-based or functional assay
[3] = target: T1, human CDH16-His tag (Sino biological, catalog number 10915-H08H) (human, UniProt O75309 19-786); assay: BLI (Octet Red 384), antibody captured on AHC biosensor
T1 construct: Bought protein; also called hCDH16; not shown: His tag
T1 sequence (looked up): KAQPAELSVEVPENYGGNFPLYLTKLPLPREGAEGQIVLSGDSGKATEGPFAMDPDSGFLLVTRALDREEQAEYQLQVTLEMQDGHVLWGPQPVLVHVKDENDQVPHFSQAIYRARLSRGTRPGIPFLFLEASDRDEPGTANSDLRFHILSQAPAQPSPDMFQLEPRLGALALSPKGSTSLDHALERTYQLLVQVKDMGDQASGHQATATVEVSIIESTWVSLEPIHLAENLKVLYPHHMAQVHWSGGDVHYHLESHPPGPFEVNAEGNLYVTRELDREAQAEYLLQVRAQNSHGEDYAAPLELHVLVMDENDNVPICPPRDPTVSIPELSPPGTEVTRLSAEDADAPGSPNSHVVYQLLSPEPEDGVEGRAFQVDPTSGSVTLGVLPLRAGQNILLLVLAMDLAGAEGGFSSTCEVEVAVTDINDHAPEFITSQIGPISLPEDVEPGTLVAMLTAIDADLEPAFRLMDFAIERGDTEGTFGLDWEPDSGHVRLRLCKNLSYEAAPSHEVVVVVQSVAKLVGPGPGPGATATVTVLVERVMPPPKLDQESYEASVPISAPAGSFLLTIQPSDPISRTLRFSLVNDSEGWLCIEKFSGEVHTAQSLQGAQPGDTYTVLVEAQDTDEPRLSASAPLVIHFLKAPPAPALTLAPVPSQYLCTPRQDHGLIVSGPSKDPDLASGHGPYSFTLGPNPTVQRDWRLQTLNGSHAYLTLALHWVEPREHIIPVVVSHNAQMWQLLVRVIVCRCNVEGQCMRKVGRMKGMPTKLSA
Experimental: (§1) The affinity between CDH17 antibodies and CDH17 antigens and homologues was determined by Octet (Octet Red 384) instrument. Anti-hIgG Fc Capture (AHC) Biosensors were selected, and the sensors were balanced with buffer solution for 10 min. Subsequently, sensors were dipped into the wells containing 1 μg/ml of CDH17 lead antibodies to load onto the probes. The excess unbound antibodies were washed off. The antigen binding was performed in the wells containing serially diluted human CDH17-His tag (Sino biological, catalog number 11360-H08H), cynomolgus CDH17-His tag (Acro Biosystems, catalog number CA7-C52H4), homologs human CDH6-His tag (Acro Biosystems, catalog number CA6-H5229) and human CDH16-His tag (Sino biological, catalog number 10915-H08H), with concentration ranging from 200 nM to 3.1 nM, for 5 min. Then probes were dipped into wells containing renewed buffer to initiate the dissociation for another 15 min.

[4] = target: T2, human CDH6-His tag (Acro Biosystems, catalog number CA6-H5229) (human, UniProt P55285 54-615); assay: as above
T2 construct: Bought protein; also called hCDH6; not shown: His tag
T2 sequence (looked up): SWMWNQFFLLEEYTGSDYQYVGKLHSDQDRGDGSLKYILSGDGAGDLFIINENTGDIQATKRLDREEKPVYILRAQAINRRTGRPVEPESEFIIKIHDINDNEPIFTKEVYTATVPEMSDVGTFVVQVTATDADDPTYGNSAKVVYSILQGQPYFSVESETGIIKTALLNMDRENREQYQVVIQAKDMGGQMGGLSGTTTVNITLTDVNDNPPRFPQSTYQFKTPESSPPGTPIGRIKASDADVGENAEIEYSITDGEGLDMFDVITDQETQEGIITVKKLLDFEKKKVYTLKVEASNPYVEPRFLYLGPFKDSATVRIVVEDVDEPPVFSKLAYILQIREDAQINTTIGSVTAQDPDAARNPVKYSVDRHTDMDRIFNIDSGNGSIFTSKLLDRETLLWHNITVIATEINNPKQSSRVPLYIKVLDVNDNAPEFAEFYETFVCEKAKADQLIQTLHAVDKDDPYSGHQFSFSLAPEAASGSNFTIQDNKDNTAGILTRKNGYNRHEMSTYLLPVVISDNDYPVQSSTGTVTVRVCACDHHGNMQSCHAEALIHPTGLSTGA
Experimental: as §1

[5] = target: T3, cynomolgus CDH17-His tag (Acro Biosystems, catalog number CA7-C52H4) (cynomolgus, UniProt A0A2K5X8I8 31-795); assay: BLI (Octet Red 384), antibody captured on AHC biosensor, antigen 200 nM to 3.1 nM
T3 construct: Bought protein; also called cCDH17; cynomolgus CDH17 protein; not shown: His tag
Experimental: as §1

T3 sequence (A0A2K5X8I8 entry or part of it, form in doubt): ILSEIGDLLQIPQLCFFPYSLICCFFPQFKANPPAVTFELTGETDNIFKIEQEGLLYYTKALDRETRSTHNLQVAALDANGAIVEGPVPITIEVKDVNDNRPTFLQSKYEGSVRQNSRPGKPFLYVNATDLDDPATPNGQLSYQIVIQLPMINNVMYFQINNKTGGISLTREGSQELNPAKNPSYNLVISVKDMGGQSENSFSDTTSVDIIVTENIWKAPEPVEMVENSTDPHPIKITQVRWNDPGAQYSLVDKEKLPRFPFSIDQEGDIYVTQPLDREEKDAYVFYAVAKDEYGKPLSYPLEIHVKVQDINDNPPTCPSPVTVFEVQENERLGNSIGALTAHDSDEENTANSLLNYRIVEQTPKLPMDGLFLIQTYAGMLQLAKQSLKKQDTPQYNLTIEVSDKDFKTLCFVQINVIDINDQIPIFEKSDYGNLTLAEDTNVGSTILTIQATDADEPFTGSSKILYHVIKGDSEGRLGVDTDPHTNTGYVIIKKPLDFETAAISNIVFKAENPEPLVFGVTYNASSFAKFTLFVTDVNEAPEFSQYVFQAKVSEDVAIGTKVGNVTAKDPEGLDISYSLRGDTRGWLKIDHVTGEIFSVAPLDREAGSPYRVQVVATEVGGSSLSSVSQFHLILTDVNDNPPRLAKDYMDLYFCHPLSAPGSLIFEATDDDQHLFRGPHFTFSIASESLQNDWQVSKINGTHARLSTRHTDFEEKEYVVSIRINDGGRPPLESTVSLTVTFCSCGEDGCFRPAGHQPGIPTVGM

Row | Molecule | IC50 of indirect killing assay (internalization) in AsPC1 cells, complex with Fab anti-human IgG Fc-MMAF [2] [nM] | also measured
1 | HBMAB-81, reformatted mAb with the CDH17 binding arm from bispecific antibody BI 905771 and human IgG1 backbone |  | EC80 [1]: 0.97 nM
2 | B1 | 0.09 | 
3 | B2 | 0.09 | 
4 | B3 | 0.09 | binding result [3]: no binding (tested: 200 nM highest antigen concentration); binding result [4]: no binding (tested: 200 nM highest antigen concentration)
5 | B4 | 0.08 | 
6 | B5 | 0.14 | 
7 | B6 | 0.15 | 
8 | B7 | 0.29 | 
9 | B8 | 0.19 | 
10 | B9 | 1.99 | 
11 | B10 | 0.08 | binding result [3]: no binding (tested: 200 nM highest antigen concentration); binding result [4]: no binding (tested: 200 nM highest antigen concentration); Kd [5]: 15 nM; koff [5]: 0.0012 s⁻¹; kon [5]: 80000 M⁻¹ s⁻¹

— patent US20260273085A1 (HANSOH BIO, published 2026)
